{"source": "the supplement of paper PMC9112550", "about": "“Optimization of the antimicrobial peptide Bac7 by deep mutational scanning” (BMC Biology, 2022);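 further: peptides expressed intracellularly from a pBAD plasmid library in pooled LB shake-flask culture, induced with 0.3% L-arabinose, DNA abundance read by NGS, three biological replicates, DESeq2 with apeglm shrinkage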", "data": [{"system": "Escherichia coli TOP10", "test": "shrunken log2 fold change of peptide-encoding DNA abundance (4.5 h post-induction vs induction); higher = less antimicrobial activity (less host growth inhibition)", "details": "time post-induction: 4.5 h; library: site-saturation at positions 5, 18, 19, 20", "values": [{"sequence": "RRIRGRPPRLPRPRPRPHAIPRP", "shrunken log2 fold change": 0.46}, {"sequence": "RRIRERPPRLPRPRPRPEDHPRP", "shrunken log2 fold change": -0.111}, {"sequence": "RRIRNRPPRLPRPRPRPTQGPRP", "shrunken log2 fold change": 0.331}, {"sequence": "RRIRMRPPRLPRPRPRPYFSPRP", "shrunken log2 fold change": -0.177}, {"sequence": "RRIRWRPPRLPRPRPRPWRAPRP", "shrunken log2 fold change": 0.223}, {"sequence": "RRIRTRPPRLPRPRPRPEYNPRP", "shrunken log2 fold change": -0.395}, {"sequence": "RRIRNRPPRLPRPRPRPNADPRP", "shrunken log2 fold change": -0.194}, {"sequence": "RRIRIRPPRLPRPRPRPDIQPRP", "shrunken log2 fold change": -0.37}, {"sequence": "RRIRPRPPRLPRPRPRPCMVPRP", "shrunken log2 fold change": -0.423}, {"sequence": "RRIRFRPPRLPRPRPRPWCLPRP", "shrunken log2 fold change": -0.17}, {"sequence": "RRIRNRPPRLPRPRPRPPFYPRP", "shrunken log2 fold change": -0.403}, {"sequence": "RRIRKRPPRLPRPRPRPADCPRP", "shrunken log2 fold change": 0.117}, {"sequence": "RRIRRRPPRLPRPRPRPWGWPRP", "shrunken log2 fold change": 0.482}, {"sequence": "RRIRNRPPRLPRPRPRPIYLPRP", "shrunken log2 fold change": -0.376}, {"sequence": "RRIRYRPPRLPRPRPRPNVPPRP", "shrunken log2 fold change": -3.01}, {"sequence": "RRIRLRPPRLPRPRPRPSQWPRP", "shrunken log2 fold change": 0.0987}, {"sequence": "RRIRPRPPRLPRPRPRPKQNPRP", "shrunken log2 fold change": 0.0525}, {"sequence": "RRIRCRPPRLPRPRPRPMADPRP", "shrunken log2 fold change": -0.0181}, {"sequence": "RRIRNRPPRLPRPRPRPIKLPRP", "shrunken log2 fold change": -0.0869}, {"sequence": "RRIRARPPRLPRPRPRPECGPRP", "shrunken log2 fold change": 1.23}, {"sequence": "RRIRHRPPRLPRPRPRPCWSPRP", "shrunken log2 fold change": -0.166}, {"sequence": "RRIRLRPPRLPRPRPRPERGPRP", "shrunken log2 fold change": 0.538}, {"sequence": "RRIRCRPPRLPRPRPRPHVFPRP", "shrunken log2 fold change": 0.161}, {"sequence": "RRIRARPPRLPRPRPRPFQAPRP", "shrunken log2 fold change": 0.0111}, {"sequence": "RRIRARPPRLPRPRPRPYVPPRP", "shrunken log2 fold change": -0.114}, {"sequence": "RRIRARPPRLPRPRPRPMSKPRP", "shrunken log2 fold change": 0.16}, {"sequence": "RRIRERPPRLPRPRPRPADEPRP", "shrunken log2 fold change": -0.032}, {"sequence": "RRIRRRPPRLPRPRPRPCPNPRP", "shrunken log2 fold change": -0.207}, {"sequence": "RRIRHRPPRLPRPRPRPGLLPRP", "shrunken log2 fold change": -0.0335}, {"sequence": "RRIRCRPPRLPRPRPRPKHQPRP", "shrunken log2 fold change": -0.0465}, {"sequence": "RRIRRRPPRLPRPRPRPVHKPRP", "shrunken log2 fold change": 0.092}, {"sequence": "RRIRFRPPRLPRPRPRPNIHPRP", "shrunken log2 fold change": -0.814}, {"sequence": "RRIRTRPPRLPRPRPRPRKLPRP", "shrunken log2 fold change": -0.073}, {"sequence": "RRIRQRPPRLPRPRPRPQAEPRP", "shrunken log2 fold change": 4.1}, {"sequence": "RRIRDRPPRLPRPRPRPFHMPRP", "shrunken log2 fold change": 0.0426}, {"sequence": "RRIRKRPPRLPRPRPRPTHGPRP", "shrunken log2 fold change": 0.547}, {"sequence": "RRIRCRPPRLPRPRPRPQRGPRP", "shrunken log2 fold change": 0.337}, {"sequence": "RRIRNRPPRLPRPRPRPYWVPRP", "shrunken log2 fold change": -0.134}, {"sequence": "RRIRKRPPRLPRPRPRPDYKPRP", "shrunken log2 fold change": -0.208}, {"sequence": "RRIRGRPPRLPRPRPRPERDPRP", "shrunken log2 fold change": 0.955}, {"sequence": "RRIRRRPPRLPRPRPRPLIKPRP", "shrunken log2 fold change": -0.0254}, {"sequence": "RRIRNRPPRLPRPRPRPEYYPRP", "shrunken log2 fold change": -0.0216}, {"sequence": "RRIRIRPPRLPRPRPRPRAQPRP", "shrunken log2 fold change": 0.27}, {"sequence": "RRIRWRPPRLPRPRPRPWRIPRP", "shrunken log2 fold change": -0.604}, {"sequence": "RRIRMRPPRLPRPRPRPSLSPRP", "shrunken log2 fold change": 0.22}, {"sequence": "RRIRYRPPRLPRPRPRPILMPRP", "shrunken log2 fold change": -0.0114}, {"sequence": "RRIRLRPPRLPRPRPRPPIWPRP", "shrunken log2 fold change": 0.0261}, {"sequence": "RRIRERPPRLPRPRPRPEEVPRP", "shrunken log2 fold change": -0.00101}, {"sequence": "RRIRLRPPRLPRPRPRPYPTPRP", "shrunken log2 fold change": -0.317}, {"sequence": "RRIRCRPPRLPRPRPRPCPMPRP", "shrunken log2 fold change": "-8.18e-06"}, {"sequence": "RRIRERPPRLPRPRPRPQCEPRP", "shrunken log2 fold change": -0.0239}, {"sequence": "RRIRERPPRLPRPRPRPWYWPRP", "shrunken log2 fold change": 0.0516}, {"sequence": "RRIRARPPRLPRPRPRPFHCPRP", "shrunken log2 fold change": 0.252}, {"sequence": "RRIRRRPPRLPRPRPRPHVWPRP", "shrunken log2 fold change": 0.242}, {"sequence": "RRIRHRPPRLPRPRPRPEMAPRP", "shrunken log2 fold change": 0.253}, {"sequence": "RRIRTRPPRLPRPRPRPDIGPRP", "shrunken log2 fold change": -0.187}, {"sequence": "RRIRKRPPRLPRPRPRPRCCPRP", "shrunken log2 fold change": 0.491}, {"sequence": "RRIRWRPPRLPRPRPRPGVIPRP", "shrunken log2 fold change": 0.0325}, {"sequence": "RRIRTRPPRLPRPRPRPWISPRP", "shrunken log2 fold change": -0.0102}, {"sequence": "RRIRMRPPRLPRPRPRPMGKPRP", "shrunken log2 fold change": 0.0275}]}]}
